Assays:
peptide SGKS [1] = molecular target: T1, peptide SGKS; experiment: kinetics of peptide hydrolysis by the enzyme, HILIC HPLC, Eadie-Hofstee
T1 chain: SGKS

peptide SGRSA [2] = molecular target: T2, peptide SGRSA; experiment: as above
T2 chain: SGRSA

[3] = molecular target: T3, peptide (V) of Table 1, YGRS; experiment: as above
T3 chain: YGRS

peptide GSGKS [4] = molecular target: T4, peptide GSGKS; experiment: as above
T4 chain: GSGKS

peptide SGRS [5] = molecular target: T5, peptide SGRS; experiment: as above
T5 chain: SGRS

[6] = molecular target: T6, peptide (VI) of Table 1, RGRK; experiment: as above
T6 chain: RGRK

[7] = molecular target: T7, peptide (VII) of Table 1, FRGRK; experiment: as above
T7 chain: FRGRK

[8] = molecular target: T8, peptide (III) of Table 1, LGGSGERARGALE
T8 chain: LGGSGERARGALE

[9] = molecular target: T9, peptide (IV) of Table 1, LGGSGHYGRSGLE
T9 chain: LGGSGHYGRSGLE

peptide SGKS [10] = molecular target: T1, peptide SGKS
peptide LGGSGRNAQVRLE [11] = molecular target: T10, peptide LGGSGRNAQVRLE
T10 chain: LGGSGRNAQVRLE

peptide LGGYGRSANAILE [12] = molecular target: T11, peptide LGGYGRSANAILE
T11 chain: LGGYGRSANAILE

[13] = molecular target: T12, peptide (I), native cleavage sequence from plasminogen
T12 chain: KKSPGRVVGGSVAH

peptide LGQRGRSANAILE [14] = molecular target: T13, peptide LGQRGRSANAILE
T13 chain: LGQRGRSANAILE

peptide LGGRGRSANAILE [15] = molecular target: T14, peptide LGGRGRSANAILE
T14 chain: LGGRGRSANAILE

peptide SGRSA [16] = molecular target: T2, peptide SGRSA
[17] = molecular target: T3, peptide (V) of Table 1, YGRS
[18] = molecular target: T15, peptide (II) of Table 1, LGGSGQRGRKALE
T15 chain: LGGSGQRGRKALE

peptide LGGSGRKASLSLE [19] = molecular target: T16, peptide LGGSGRKASLSLE
T16 chain: LGGSGRKASLSLE

peptide GSGKS [20] = molecular target: T4, peptide GSGKS
[21] = molecular target: T17, fusion of maltose binding protein, QRGRSA and the HY4 gene product of Arabidopsis thaliana, Q43125
T17 chain: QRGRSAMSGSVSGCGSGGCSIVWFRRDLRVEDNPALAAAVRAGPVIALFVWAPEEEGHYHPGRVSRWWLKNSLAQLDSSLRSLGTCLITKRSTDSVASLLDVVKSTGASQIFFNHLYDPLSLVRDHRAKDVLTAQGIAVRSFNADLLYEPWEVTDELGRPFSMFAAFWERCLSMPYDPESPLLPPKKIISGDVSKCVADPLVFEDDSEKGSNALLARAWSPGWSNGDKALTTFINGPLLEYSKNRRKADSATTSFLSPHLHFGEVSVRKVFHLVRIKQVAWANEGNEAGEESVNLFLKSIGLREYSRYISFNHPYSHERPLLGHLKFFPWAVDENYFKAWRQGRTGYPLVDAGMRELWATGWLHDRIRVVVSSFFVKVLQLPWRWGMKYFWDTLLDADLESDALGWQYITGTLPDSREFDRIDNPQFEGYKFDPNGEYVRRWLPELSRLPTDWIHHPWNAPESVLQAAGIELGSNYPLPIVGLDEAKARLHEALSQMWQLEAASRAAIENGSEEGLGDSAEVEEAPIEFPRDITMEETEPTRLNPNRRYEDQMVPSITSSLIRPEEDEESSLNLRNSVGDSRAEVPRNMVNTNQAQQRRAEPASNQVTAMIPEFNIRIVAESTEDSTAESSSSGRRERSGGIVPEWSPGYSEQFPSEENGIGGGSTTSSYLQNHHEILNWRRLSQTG

peptide SGRS [22] = molecular target: T5, peptide SGRS
peptide LGGSGRSANAILE [23] = molecular target: T18, peptide LGGSGRSANAILE
T18 chain: LGGSGRSANAILE

peptide LGGSGRSATRDLE [24] = molecular target: T19, peptide LGGSGRSATRDLE
T19 chain: LGGSGRSATRDLE

[25] = molecular target: T6, peptide (VI) of Table 1, RGRK
[26] = molecular target: T7, peptide (VII) of Table 1, FRGRK
[27] = molecular target: T8, peptide (III) of Table 1, LGGSGERARGALE; experiment: kinetics of peptide hydrolysis by the enzyme, HPLC, Eadie-Hofstee
[28] = molecular target: T9, peptide (IV) of Table 1, LGGSGHYGRSGLE; experiment: as above
peptide LGGSGRNAQVRLE [29] = molecular target: T10, peptide LGGSGRNAQVRLE; experiment: as above
peptide LGGYGRSANAILE [30] = molecular target: T11, peptide LGGYGRSANAILE; experiment: as above
[31] = molecular target: T12, peptide (I), native cleavage sequence …; experiment: as above
peptide LGQRGRSANAILE [32] = molecular target: T13, peptide LGQRGRSANAILE; experiment: as above
peptide LGGRGRSANAILE [33] = molecular target: T14, peptide LGGRGRSANAILE; experiment: as above
[34] = molecular target: T15, peptide (II) of Table 1, LGGSGQRGRKALE; experiment: as above
peptide LGGSGRKASLSLE [35] = molecular target: T16, peptide LGGSGRKASLSLE; experiment: as above
peptide LGGSGRSANAILE [36] = molecular target: T18, peptide LGGSGRSANAILE; experiment: as above
peptide LGGSGRSATRDLE [37] = molecular target: T19, peptide LGGSGRSATRDLE; experiment: as above

B1: tissue plasminogen activator (t-PA) (protein)
chain: SYQVICRDEKTQMIYQQHQSWLRPVLRSNRVEYCWCNSGRAQCHSVPVKSCSEPRCFNGGTCQQALYFSDFVCQCPEGFAGKCCEIDTRATCYEDQGISYRGTWSTAESGAECTNWNSSALAQKPYSGRRPDAIRLGLGNHNYCRNPDRDSKPWCYVFKAGKYSSEFCSTPACSEGNSDCYFGNGSAYRGTHSLTESGASCLPWNSMILIGKVYTAQNPSAQALGLGKHNYCRNPDGDAKPWCHVLKNRRLTWEYCDVPSCSTCGLRQYSQPQFRIKGGLFADIASHPWQAAIFAKHRRSPGERFLCGGILISSCWILSAAHCFQERFPPHHLTVILGRTYRVVPGEEEQKFEVEKYIVHKEFDDDTYDNDIALLQLKSDSSRCAQESSVVRTVCLPPADLQLPDWTECELSGYGKHEALSPFYSERLKEAHVRLYPSSRCTSQHLLNRTVTDNMLCAGDTRSGGPQANLHDACQGDSGGPLVCLNDGRMTLVGIISWGLGCGQKDVPGVYTKVTNYLDWIRDNMRP
For B1, the Km (peptide SGKS [1]) was 28 mM, the Km (peptide SGRSA [2]) was 40 mM and the Km [3] was 6 mM. The Km (peptide GSGKS [4]) was 44 mM, the Km (peptide SGRS [5]) was 15 mM and the Km [6] was 16.6 mM. The Km [7] was 9.8 mM, the kcat [8] was 0.073 s⁻¹ and the kcat/Km [8] was 52 M⁻¹ s⁻¹. For the same protein, the kcat [9] was 1.29 s⁻¹, the kcat/Km [9] was 322 M⁻¹ s⁻¹ and the “fold decrease of catalytic efficiency against peptide (VI) SGRS” value (peptide SGKS [10]) was “by a factor of 49 for t-PA”. It also gave a kcat (peptide SGKS [10]) of 0.19 s⁻¹, a kcat/Km (peptide SGKS [10]) of 6.8 M⁻¹ s⁻¹ and a kcat (peptide LGGSGRNAQVRLE [11]) of 0.255 s⁻¹. It also gave a kcat/Km (peptide LGGSGRNAQVRLE [11]) of 36 M⁻¹ s⁻¹, a kcat (peptide LGGYGRSANAILE [12]) of 3.29 s⁻¹ and a kcat/Km (peptide LGGYGRSANAILE [12]) of 1800 M⁻¹ s⁻¹. The kcat [13] was 0.0043 s⁻¹, the kcat/Km [13] was 0.29 M⁻¹ s⁻¹ and the kcat (peptide LGQRGRSANAILE [14]) was 2.55 s⁻¹. It also gave a kcat/Km (peptide LGQRGRSANAILE [14]) of 850 M⁻¹ s⁻¹, a kcat (peptide LGGRGRSANAILE [15]) of 0.85 s⁻¹ and a kcat/Km (peptide LGGRGRSANAILE [15]) of 350 M⁻¹ s⁻¹. For the same protein, the kcat (peptide SGRSA [16]) was 2.4 s⁻¹, the kcat/Km (peptide SGRSA [16]) was 60 M⁻¹ s⁻¹ and the kcat [17] was 23.7 s⁻¹. For the same protein, the kcat/Km [17] was 3950 M⁻¹ s⁻¹, the kcat [18] was 0.99 s⁻¹ and the kcat/Km [18] was 430 M⁻¹ s⁻¹. It also gave a kcat (peptide LGGSGRKASLSLE [19]) of 0.168 s⁻¹, a kcat/Km (peptide LGGSGRKASLSLE [19]) of 33 M⁻¹ s⁻¹ and a kcat (peptide GSGKS [20]) of 0.07 s⁻¹. For the same protein, the kcat/Km (peptide GSGKS [20]) was 1.6 M⁻¹ s⁻¹, the “cleavage of fusion protein, SDS-PAGE” value [21] was “t-PA readily cleaved the fusion protein” and the kcat (peptide SGRS [22]) was 5 s⁻¹. The kcat/Km (peptide SGRS [22]) was 330 M⁻¹ s⁻¹, the kcat (peptide LGGSGRSANAILE [23]) was 0.305 s⁻¹ and the kcat/Km (peptide LGGSGRSANAILE [23]) was 75 M⁻¹ s⁻¹. For the same protein, the kcat (peptide LGGSGRSATRDLE [24]) was 0.068 s⁻¹, the kcat/Km (peptide LGGSGRSATRDLE [24]) was 45 M⁻¹ s⁻¹ and the kcat [25] was 15.3 s⁻¹. The kcat/Km [25] was 992 M⁻¹ s⁻¹, the “fold more efficient cleavage by t-PA than by u-PA” value [26] was “approximately 74 times more efficiently by t-PA than by u-PA” and the kcat [26] was 12.2 s⁻¹. It also gave a kcat/Km [26] of 1240 M⁻¹ s⁻¹, a Km [27] of 1.41 mM and a Km [28] of 4.01 mM. For the same protein, the Km (peptide LGGSGRNAQVRLE [29]) was 7 mM, the Km (peptide LGGYGRSANAILE [30]) was 1.85 mM and the Km [31] was 15 mM. For the same protein, the Km (peptide LGQRGRSANAILE [32]) was 3 mM, the Km (peptide LGGRGRSANAILE [33]) was 2.4 mM and the Km [34] was 2.3 mM. For the same protein, the Km (peptide LGGSGRKASLSLE [35]) was 5.1 mM, the Km (peptide LGGSGRSANAILE [36]) was 4.08 mM and the Km (peptide LGGSGRSATRDLE [37]) was 1.5 mM.
